Assay results as given in patent US10047131B2, “Peptides and combination of peptides for use in immunotherapy against ovarian cancer and other cancers” (immatics biotechnologies GmbH, priority 2015, dated 2018).

What follows are substances tested against HLA-A*02:01 (Homo sapiens, UniProt P04439, D140Y/D185E/D98H/E176V/E277Q/G131W/G231S/I119V/I121R/I166T/I218V/L300P/L318F/N151K/N90K/P208A/P217A/Q86G/Q94H/R138H/R169H/T345S) (assay: MHC binding assay (UV-ligand exchange, ELISA of exchange yield)). Details: binding to HLA-A*02:01, UV-ligand exchange.
How it was run: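 ELISA of β2m retained on streptavidin-captured, 100-fold diluted complexes (HRP anti-β2m, TMB, 450 nm) gives the yield. Complexes come from UV-triggered exchange of a photocleavable placeholder peptide for the candidate, which must bind to stop complex dissociation.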

Row | Substance | Peptide exchange (MHC class I binding score, peptide exchange yield)
1 | 507 (KLIDDQDISISL; listed as Homo sapiens) [compound 507] | “+++” (≥50 = +++)
2 | 509 (FLFDTKPLIV; listed as Homo sapiens) [compound 509] | “+++” (≥50 = +++)
3 | 510 (KLYSVVSQL; listed as Homo sapiens) [compound 510] | “++” (≥20% = ++)
4 | 512 (SLSEIVPCL; listed as Homo sapiens) [compound 512] | “+++” (≥50 = +++)
5 | 513 (SLWPSPEQL; listed as Homo sapiens) [compound 513] | “++” (≥20% = ++)
6 | 514 (ILVDWLVQV; listed as Homo sapiens) [compound 514] | “+++” (≥50 = +++)
7 | 515 (LLQELVLFL; listed as Homo sapiens) [compound 515] | “+++” (≥50 = +++)
8 | 516 (AVGPASILKEV; listed as Homo sapiens) [compound 516] | “++” (≥20% = ++)
9 | 517 (LLMPIPEGLTL; listed as Homo sapiens) [compound 517] | “+++” (≥50 = +++)
10 | 520 (LAVHPSGVAL; listed as Homo sapiens) [compound 520] | “+” (≥10% = +)
11 | 522 (TLWYRSPEV; listed as Homo sapiens) [compound 522] | “++” (≥20% = ++)
12 | 524 (ALIENLTHQI; listed as Homo sapiens) [compound 524] | “++” (≥20% = ++)
13 | 526 (RLAEVGQYEQV; listed as Homo sapiens) [compound 526] | “++” (≥20% = ++)
14 | 527 (FLLEPGNLEV; listed as Homo sapiens) [compound 527] | “++++” (≥75% = ++++)
15 | 528 (SVAEGRALMSV; listed as Homo sapiens) [compound 528] | “+++” (≥50 = +++)
16 | 538 (LLLAHIIAL; listed as Homo sapiens) [compound 538] | “++” (≥20% = ++)
17 | 544 (LLWDVPAPSL; listed as Homo sapiens) [compound 544] | “+++” (≥50 = +++)
18 | 545 (LLADLLHNV; listed as Homo sapiens) [compound 545] | “+++” (≥50 = +++)
19 | 548 (ALWENPESGEL; listed as Homo sapiens) [compound 548] | “++” (≥20% = ++)
20 | 549 (AMLENASDIKL; listed as Homo sapiens) [compound 549] | “+++” (≥50 = +++)
21 | 551 (KLYESLLPFA; listed as Homo sapiens) [compound 551] | “+++” (≥50 = +++)
22 | 552 (GLLDLPFRVGV; listed as Homo sapiens) [compound 552] | “++++” (≥75% = ++++)
23 | 553 (SLLNQDLHWSL; listed as Homo sapiens) [compound 553] | “++++” (≥75% = ++++)
24 | 554 (LLMPSSEDLLL; listed as Homo sapiens) [compound 554] | “+++” (≥50 = +++)
25 | 556 (FLTDLEDLTL; listed as Homo sapiens) [compound 556] | “+++” (≥50 = +++)
26 | 557 (KLYDDMIRL; listed as Homo sapiens) [compound 557] | “+++” (≥50 = +++)
27 | 558 (GLLENIPRV; listed as Homo sapiens) [compound 558] | “+++” (≥50 = +++)
28 | 559 (VTVPPGPSL; listed as Homo sapiens) [compound 559] | “++” (≥20% = ++)
29 | 560 (ALWDIETGQQTTT; listed as Homo sapiens) [compound 560] | “+++” (≥50 = +++)
30 | 561 (YLQLTQSEL; listed as Homo sapiens) [compound 561] | “+++” (≥50 = +++)

More lines, now with the values ahead:

Row | Peptide exchange (MHC class I binding score, peptide exchange yield) | Substance
31 | “+++” (≥50 = +++) | 506 (KLLGKVETA; listed as Homo sapiens) [compound 506]
32 | “+++” (≥50 = +++) | 508 (ILAQEQLVVGV; listed as Homo sapiens) [compound 508]
33 | “++” (≥20% = ++) | 511 (FLDPYCSASV; listed as Homo sapiens) [compound 511]
34 | “+++” (≥50 = +++) | 518 (KLNAEVACV; listed as Homo sapiens) [compound 518]
35 | “+++” (≥50 = +++) | 519 (GLLHLTLLL; listed as Homo sapiens) [compound 519]
36 | “+++” (≥50 = +++) | 521 (MLLTKLPTI; listed as Homo sapiens) [compound 521]
37 | “++” (≥20% = ++) | 523 (YQIPRTFTL; listed as Homo sapiens) [compound 523]
38 | “+++” (≥50 = +++) | 525 (VLLEAGEGLVTI; listed as Homo sapiens) [compound 525]
39 | “+++” (≥50 = +++) | 529 (LLADELITV; listed as Homo sapiens) [compound 529]
40 | “+++” (≥50 = +++) | 530 (VMYADIGGMDI; listed as Homo sapiens) [compound 530]
41 | “+++” (≥50 = +++) | 531 (YTLPIASSIRL; listed as Homo sapiens) [compound 531]
42 | “+++” (≥50 = +++) | 537 (TLAPGEVLRSV; listed as Homo sapiens) [compound 537]
43 | “+++” (≥50 = +++) | 539 (ALFDAQAQV; listed as Homo sapiens) [compound 539]
44 | “+++” (≥50 = +++) | 541 (SMLEPVPEL; listed as Homo sapiens) [compound 541]
45 | “+++” (≥50 = +++) | 542 (RVWDISTVSSV; listed as Homo sapiens) [compound 542]
46 | “+++” (≥50 = +++) | 543 (GLLPTPITQQASL; listed as Homo sapiens) [compound 543]
47 | “+++” (≥50 = +++) | 546 (VMIAGKVAVV; listed as Homo sapiens) [compound 546]
48 | “+++” (≥50 = +++) | 547 (TLDITPHTV; listed as Homo sapiens) [compound 547]
49 | “+++” (≥50 = +++) | 550 (FLYDEIEAEVNL; listed as Homo sapiens) [compound 550]
50 | “+++” (≥50 = +++) | 555 (YVLEGLKSV; listed as Homo sapiens) [compound 555]
